# Experimental data published in IntAct's records for PubMed 24366543.
# B1: Nuclear factor erythroid 2-related factor 2 (Mus musculus), Q60795 (parent)
# chain: MMDLELPPPGLQSQQDMDLIDILWRQDIDLGVSREVFDFSQRQKDYELEKQKKLEKERQEQLQKEQEKAFFAQFQLDEETGEFLPIQPAQHIQTDTSGSASYSQVAHIPKQDALYFEDCMQLLAETFPFVDDHESLALDIPSHAESSVFTAPHQAQSLNSSLEAAMTDLSSIEQDMEQVWQELFSIPELQCLNTENKQLADTTAVPSPEATLTEMDSNYHFYSSISSLEKEVGNCGPHFLHGFEDSFSSILSTDDASQLTSLDSNPTLNTDFGDEFYSAFIAEPSDGGSMPSSAAISQSLSELLDGTIEGCDLSLCKAFNPKHAEGTMEFNDSDSGISLNTSPSRASPEHSVESSIYGDPPPGFSDSEMEELDSAPGSVKQNGPKAQPAHSPGDTVQPLSPAQGHSAPMRESQCENTTKKEVPVSPGHQKAPFTKDKHSSRLEAHLTRDELRAKALHIPFPVEKIINLPVDDFNEMMSKEQFNEAQLALIRDIRRRGKNKVAAQNCRKRKLENIVELEQDLGHLKDEREKLLREKGENDRNLHLLKRRLSTLYLEVFSMLRDEDGKPYSPSEYSLQQTRDGNVFLVPKSKKPDTKKN
# Variants of: B1
# Conditions: with keap1_mouse Keap1, Q9Z2X8
# keap1_mouse Keap1, Q9Z2X8, sequence (Q9Z2X8 whole entry): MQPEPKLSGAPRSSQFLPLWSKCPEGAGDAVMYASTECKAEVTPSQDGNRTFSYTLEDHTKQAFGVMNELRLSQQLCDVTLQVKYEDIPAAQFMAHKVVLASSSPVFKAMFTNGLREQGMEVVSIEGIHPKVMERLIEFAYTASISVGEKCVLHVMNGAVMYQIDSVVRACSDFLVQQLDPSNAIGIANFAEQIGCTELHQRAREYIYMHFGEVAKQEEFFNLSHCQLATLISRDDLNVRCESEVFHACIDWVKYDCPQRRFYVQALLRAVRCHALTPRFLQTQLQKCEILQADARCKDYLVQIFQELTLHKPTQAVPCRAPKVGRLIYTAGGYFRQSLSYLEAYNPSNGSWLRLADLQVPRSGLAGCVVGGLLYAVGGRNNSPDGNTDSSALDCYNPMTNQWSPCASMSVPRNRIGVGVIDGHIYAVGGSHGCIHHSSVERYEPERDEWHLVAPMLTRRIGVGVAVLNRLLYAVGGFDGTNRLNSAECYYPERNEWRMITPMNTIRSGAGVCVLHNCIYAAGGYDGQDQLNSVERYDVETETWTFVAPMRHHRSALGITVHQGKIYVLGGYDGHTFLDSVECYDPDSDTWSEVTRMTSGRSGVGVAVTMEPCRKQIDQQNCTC
row,Variant,effect of a mutation on the interaction
1,MMDLELPPPGLQSQQDMDLIDILCRQDIDLGVSREVFDFSQRQKDYELEKQKKLEKERQEQLQKEQEKAFFAQFQLDEETGEFLPIQPAQHIQTDTSGSASYSQVAHIPKQDALYFEDCMQLLAETFPFVDDHESLALDIPSHAESSVFTAPHQAQSLNSSLEAAMTDLSSIEQDMEQVWQELFSIPELQCLNTENKQLADTTAVPSPEATLTEMDSNYHFYSSISSLEKEVGNCGPHFLHGFEDSFSSILSTDDASQLTSLDSNPTLNTDFGDEFYSAFIAEPSDGGSMPSSAAISQSLSELLDGTIEGCDLSLCKAFNPKHAEGTMEFNDSDSGISLNTSPSRASPEHSVESSIYGDPPPGFSDSEMEELDSAPGSVKQNGPKAQPAHSPGDTVQPLSPAQGHSAPMRESQCENTTKKEVPVSPGHQKAPFTKDKHSSRLEAHLTRDELRAKALHIPFPVEKIINLPVDDFNEMMSKEQFNEAQLALIRDIRRRGKNKVAAQNCRKRKLENIVELEQDLGHLKDEREKLLREKGENDRNLHLLKRRLSTLYLEVFSMLRDEDGKPYSPSEYSLQQTRDGNVFLVPKSKKPDTKKN [W24C],disrupting interaction

# Variants of: B1
# Conditions: with keap1_mouse Keap1, Q9Z2X8
# Remark: another data set of the same source
row,Variant,effect of a mutation on the interaction
1,MMDLELPPPGLQSQQDMDLIDILRRQDIDLGVSREVFDFSQRQKDYELEKQKKLEKERQEQLQKEQEKAFFAQFQLDEETGEFLPIQPAQHIQTDTSGSASYSQVAHIPKQDALYFEDCMQLLAETFPFVDDHESLALDIPSHAESSVFTAPHQAQSLNSSLEAAMTDLSSIEQDMEQVWQELFSIPELQCLNTENKQLADTTAVPSPEATLTEMDSNYHFYSSISSLEKEVGNCGPHFLHGFEDSFSSILSTDDASQLTSLDSNPTLNTDFGDEFYSAFIAEPSDGGSMPSSAAISQSLSELLDGTIEGCDLSLCKAFNPKHAEGTMEFNDSDSGISLNTSPSRASPEHSVESSIYGDPPPGFSDSEMEELDSAPGSVKQNGPKAQPAHSPGDTVQPLSPAQGHSAPMRESQCENTTKKEVPVSPGHQKAPFTKDKHSSRLEAHLTRDELRAKALHIPFPVEKIINLPVDDFNEMMSKEQFNEAQLALIRDIRRRGKNKVAAQNCRKRKLENIVELEQDLGHLKDEREKLLREKGENDRNLHLLKRRLSTLYLEVFSMLRDEDGKPYSPSEYSLQQTRDGNVFLVPKSKKPDTKKN [W24R],disrupting interaction

# Variants of: B1
# Conditions: with keap1_mouse Keap1, Q9Z2X8
# Remark: another data set of the same source
row,Variant,effect of a mutation on the interaction
1,MMDLELPPPGLQSQQDMDLIDILWREDIDLGVSREVFDFSQRQKDYELEKQKKLEKERQEQLQKEQEKAFFAQFQLDEETGEFLPIQPAQHIQTDTSGSASYSQVAHIPKQDALYFEDCMQLLAETFPFVDDHESLALDIPSHAESSVFTAPHQAQSLNSSLEAAMTDLSSIEQDMEQVWQELFSIPELQCLNTENKQLADTTAVPSPEATLTEMDSNYHFYSSISSLEKEVGNCGPHFLHGFEDSFSSILSTDDASQLTSLDSNPTLNTDFGDEFYSAFIAEPSDGGSMPSSAAISQSLSELLDGTIEGCDLSLCKAFNPKHAEGTMEFNDSDSGISLNTSPSRASPEHSVESSIYGDPPPGFSDSEMEELDSAPGSVKQNGPKAQPAHSPGDTVQPLSPAQGHSAPMRESQCENTTKKEVPVSPGHQKAPFTKDKHSSRLEAHLTRDELRAKALHIPFPVEKIINLPVDDFNEMMSKEQFNEAQLALIRDIRRRGKNKVAAQNCRKRKLENIVELEQDLGHLKDEREKLLREKGENDRNLHLLKRRLSTLYLEVFSMLRDEDGKPYSPSEYSLQQTRDGNVFLVPKSKKPDTKKN [Q26E],disrupting interaction

# Variants of: B1
# Conditions: with keap1_mouse Keap1, Q9Z2X8
# Remark: another data set of the same source
row,Variant,effect of a mutation on the interaction
1,MMDLELPPPGLQSQQDMDLIDILWRQYIDLGVSREVFDFSQRQKDYELEKQKKLEKERQEQLQKEQEKAFFAQFQLDEETGEFLPIQPAQHIQTDTSGSASYSQVAHIPKQDALYFEDCMQLLAETFPFVDDHESLALDIPSHAESSVFTAPHQAQSLNSSLEAAMTDLSSIEQDMEQVWQELFSIPELQCLNTENKQLADTTAVPSPEATLTEMDSNYHFYSSISSLEKEVGNCGPHFLHGFEDSFSSILSTDDASQLTSLDSNPTLNTDFGDEFYSAFIAEPSDGGSMPSSAAISQSLSELLDGTIEGCDLSLCKAFNPKHAEGTMEFNDSDSGISLNTSPSRASPEHSVESSIYGDPPPGFSDSEMEELDSAPGSVKQNGPKAQPAHSPGDTVQPLSPAQGHSAPMRESQCENTTKKEVPVSPGHQKAPFTKDKHSSRLEAHLTRDELRAKALHIPFPVEKIINLPVDDFNEMMSKEQFNEAQLALIRDIRRRGKNKVAAQNCRKRKLENIVELEQDLGHLKDEREKLLREKGENDRNLHLLKRRLSTLYLEVFSMLRDEDGKPYSPSEYSLQQTRDGNVFLVPKSKKPDTKKN [D27Y],disrupting interaction

# Variants of: B1
# Conditions: with keap1_mouse Keap1, Q9Z2X8
# Remark: another data set of the same source
row,Variant,effect of a mutation on the interaction
1,MMDLELPPPGLQSQQDMDLIDILWRQDTDLGVSREVFDFSQRQKDYELEKQKKLEKERQEQLQKEQEKAFFAQFQLDEETGEFLPIQPAQHIQTDTSGSASYSQVAHIPKQDALYFEDCMQLLAETFPFVDDHESLALDIPSHAESSVFTAPHQAQSLNSSLEAAMTDLSSIEQDMEQVWQELFSIPELQCLNTENKQLADTTAVPSPEATLTEMDSNYHFYSSISSLEKEVGNCGPHFLHGFEDSFSSILSTDDASQLTSLDSNPTLNTDFGDEFYSAFIAEPSDGGSMPSSAAISQSLSELLDGTIEGCDLSLCKAFNPKHAEGTMEFNDSDSGISLNTSPSRASPEHSVESSIYGDPPPGFSDSEMEELDSAPGSVKQNGPKAQPAHSPGDTVQPLSPAQGHSAPMRESQCENTTKKEVPVSPGHQKAPFTKDKHSSRLEAHLTRDELRAKALHIPFPVEKIINLPVDDFNEMMSKEQFNEAQLALIRDIRRRGKNKVAAQNCRKRKLENIVELEQDLGHLKDEREKLLREKGENDRNLHLLKRRLSTLYLEVFSMLRDEDGKPYSPSEYSLQQTRDGNVFLVPKSKKPDTKKN [I28T],disrupting interaction

# Variants of: B1
# Conditions: with keap1_mouse Keap1, Q9Z2X8
# Remark: another data set of the same source
row,Variant,effect of a mutation on the interaction
1,MMDLELPPPGLQSQQDMDLIDILWRQDIGLGVSREVFDFSQRQKDYELEKQKKLEKERQEQLQKEQEKAFFAQFQLDEETGEFLPIQPAQHIQTDTSGSASYSQVAHIPKQDALYFEDCMQLLAETFPFVDDHESLALDIPSHAESSVFTAPHQAQSLNSSLEAAMTDLSSIEQDMEQVWQELFSIPELQCLNTENKQLADTTAVPSPEATLTEMDSNYHFYSSISSLEKEVGNCGPHFLHGFEDSFSSILSTDDASQLTSLDSNPTLNTDFGDEFYSAFIAEPSDGGSMPSSAAISQSLSELLDGTIEGCDLSLCKAFNPKHAEGTMEFNDSDSGISLNTSPSRASPEHSVESSIYGDPPPGFSDSEMEELDSAPGSVKQNGPKAQPAHSPGDTVQPLSPAQGHSAPMRESQCENTTKKEVPVSPGHQKAPFTKDKHSSRLEAHLTRDELRAKALHIPFPVEKIINLPVDDFNEMMSKEQFNEAQLALIRDIRRRGKNKVAAQNCRKRKLENIVELEQDLGHLKDEREKLLREKGENDRNLHLLKRRLSTLYLEVFSMLRDEDGKPYSPSEYSLQQTRDGNVFLVPKSKKPDTKKN [D29G],disrupting interaction

# Variants of: B1
# Conditions: with keap1_mouse Keap1, Q9Z2X8
# Remark: another data set of the same source
row,Variant,effect of a mutation on the interaction
1,MMDLELPPPGLQSQQDMDLIDILWRQDIHLGVSREVFDFSQRQKDYELEKQKKLEKERQEQLQKEQEKAFFAQFQLDEETGEFLPIQPAQHIQTDTSGSASYSQVAHIPKQDALYFEDCMQLLAETFPFVDDHESLALDIPSHAESSVFTAPHQAQSLNSSLEAAMTDLSSIEQDMEQVWQELFSIPELQCLNTENKQLADTTAVPSPEATLTEMDSNYHFYSSISSLEKEVGNCGPHFLHGFEDSFSSILSTDDASQLTSLDSNPTLNTDFGDEFYSAFIAEPSDGGSMPSSAAISQSLSELLDGTIEGCDLSLCKAFNPKHAEGTMEFNDSDSGISLNTSPSRASPEHSVESSIYGDPPPGFSDSEMEELDSAPGSVKQNGPKAQPAHSPGDTVQPLSPAQGHSAPMRESQCENTTKKEVPVSPGHQKAPFTKDKHSSRLEAHLTRDELRAKALHIPFPVEKIINLPVDDFNEMMSKEQFNEAQLALIRDIRRRGKNKVAAQNCRKRKLENIVELEQDLGHLKDEREKLLREKGENDRNLHLLKRRLSTLYLEVFSMLRDEDGKPYSPSEYSLQQTRDGNVFLVPKSKKPDTKKN [D29H],disrupting interaction

# Variants of: B1
# Conditions: with keap1_mouse Keap1, Q9Z2X8
# Remark: another data set of the same source
row,Variant,effect of a mutation on the interaction
1,MMDLELPPPGLQSQQDMDLIDILWRQDIDFGVSREVFDFSQRQKDYELEKQKKLEKERQEQLQKEQEKAFFAQFQLDEETGEFLPIQPAQHIQTDTSGSASYSQVAHIPKQDALYFEDCMQLLAETFPFVDDHESLALDIPSHAESSVFTAPHQAQSLNSSLEAAMTDLSSIEQDMEQVWQELFSIPELQCLNTENKQLADTTAVPSPEATLTEMDSNYHFYSSISSLEKEVGNCGPHFLHGFEDSFSSILSTDDASQLTSLDSNPTLNTDFGDEFYSAFIAEPSDGGSMPSSAAISQSLSELLDGTIEGCDLSLCKAFNPKHAEGTMEFNDSDSGISLNTSPSRASPEHSVESSIYGDPPPGFSDSEMEELDSAPGSVKQNGPKAQPAHSPGDTVQPLSPAQGHSAPMRESQCENTTKKEVPVSPGHQKAPFTKDKHSSRLEAHLTRDELRAKALHIPFPVEKIINLPVDDFNEMMSKEQFNEAQLALIRDIRRRGKNKVAAQNCRKRKLENIVELEQDLGHLKDEREKLLREKGENDRNLHLLKRRLSTLYLEVFSMLRDEDGKPYSPSEYSLQQTRDGNVFLVPKSKKPDTKKN [L30F],disrupting interaction

# Variants of: B1
# Conditions: with keap1_mouse Keap1, Q9Z2X8
# Remark: another data set of the same source
row,Variant,effect of a mutation on the interaction
1,MMDLELPPPGLQSQQDMDLIDILWRQDIDLAVSREVFDFSQRQKDYELEKQKKLEKERQEQLQKEQEKAFFAQFQLDEETGEFLPIQPAQHIQTDTSGSASYSQVAHIPKQDALYFEDCMQLLAETFPFVDDHESLALDIPSHAESSVFTAPHQAQSLNSSLEAAMTDLSSIEQDMEQVWQELFSIPELQCLNTENKQLADTTAVPSPEATLTEMDSNYHFYSSISSLEKEVGNCGPHFLHGFEDSFSSILSTDDASQLTSLDSNPTLNTDFGDEFYSAFIAEPSDGGSMPSSAAISQSLSELLDGTIEGCDLSLCKAFNPKHAEGTMEFNDSDSGISLNTSPSRASPEHSVESSIYGDPPPGFSDSEMEELDSAPGSVKQNGPKAQPAHSPGDTVQPLSPAQGHSAPMRESQCENTTKKEVPVSPGHQKAPFTKDKHSSRLEAHLTRDELRAKALHIPFPVEKIINLPVDDFNEMMSKEQFNEAQLALIRDIRRRGKNKVAAQNCRKRKLENIVELEQDLGHLKDEREKLLREKGENDRNLHLLKRRLSTLYLEVFSMLRDEDGKPYSPSEYSLQQTRDGNVFLVPKSKKPDTKKN [G31A],disrupting interaction

# Variants of: B1
# Conditions: with keap1_mouse Keap1, Q9Z2X8
# Remark: another data set of the same source
row,Variant,effect of a mutation on the interaction
1,MMDLELPPPGLQSQQDMDLIDILWRQDIDLGGSREVFDFSQRQKDYELEKQKKLEKERQEQLQKEQEKAFFAQFQLDEETGEFLPIQPAQHIQTDTSGSASYSQVAHIPKQDALYFEDCMQLLAETFPFVDDHESLALDIPSHAESSVFTAPHQAQSLNSSLEAAMTDLSSIEQDMEQVWQELFSIPELQCLNTENKQLADTTAVPSPEATLTEMDSNYHFYSSISSLEKEVGNCGPHFLHGFEDSFSSILSTDDASQLTSLDSNPTLNTDFGDEFYSAFIAEPSDGGSMPSSAAISQSLSELLDGTIEGCDLSLCKAFNPKHAEGTMEFNDSDSGISLNTSPSRASPEHSVESSIYGDPPPGFSDSEMEELDSAPGSVKQNGPKAQPAHSPGDTVQPLSPAQGHSAPMRESQCENTTKKEVPVSPGHQKAPFTKDKHSSRLEAHLTRDELRAKALHIPFPVEKIINLPVDDFNEMMSKEQFNEAQLALIRDIRRRGKNKVAAQNCRKRKLENIVELEQDLGHLKDEREKLLREKGENDRNLHLLKRRLSTLYLEVFSMLRDEDGKPYSPSEYSLQQTRDGNVFLVPKSKKPDTKKN [V32G],disrupting interaction
